Article PMC5358783, “Structural insights into the regulation of Bacillus subtilis SigW activity by anti-sigma RsiW” (PLoS ONE, 2017)

Biological target: T1, cytoplasmic domain of Bacillus subtilis anti-sigma RsiW (residues 1-80), reduced, zinc-bound (B. subtilis 168 strain, UniProt Q45588 1-80)
T1 construct: RsiW, anti-sigma-W factor of Bacillus subtilis 168, cytoplasmic domain, residues 1-80; Coordinates one zinc ion through C3, H30, C34 and C37 (CHCC motif); The Hisx6-thioredoxin tag was removed with TEV protease after the first IMAC step; also called RsiW_(cyto); RsiWcyto; not shown: His6, N-terminal, cleaved; thioredoxin, N-terminal, cleaved
T1 sequence (looked up): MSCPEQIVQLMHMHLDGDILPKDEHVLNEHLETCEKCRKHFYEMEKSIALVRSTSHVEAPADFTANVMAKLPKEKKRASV
Assay: SEC-MALS; purified SigW/RsiWcyto complex injected into a Superdex200 analytical column with inline DAWN HELEOS MALLS and Optilab rEX refractive index detectors; molecular weight of the complex approximately 31.5 kDa
Conditions: both partners purified

B1: Bacillus subtilis SigW (residues 1-187) (natural protein, B. subtilis 168 strain, UniProt Q45585 1-187, looked up)
chain: MEMMIKKRIKQVKKGDQDAFADIVDIYKDKIYQLCYRMLGNVHEAEDIAQEAFIRAYVNIDSFDINRKFSTWLYRIATNLTIDRIRKKKPDYYLDAEVAGTEGLTMYSQIVADGVLPEDAVVSLELSNTIQQKILKLPDKYRTVIVLKYIDELSLIEIGEILNIPVGTVKTRIHRGREALRKQLRDL
notes: SigW, ECF (group IV) sigma factor of Bacillus subtilis 168, residues 1-187; domains sigmaW2 (residues 3-95) and sigmaW4 (residues 125-187) joined by a disordered loop (96-125); No tag on SigW itself (cloned in MCS2 of pET-DUET1); it is purified through the His-tagged RsiWcyto; A selenomethionine-labelled complex (E. coli B834 (DE3)) was used for phasing only; also called sigma factor SigW; ECF …
stoichiometry N: 1 SigW per RsiWcyto
